Target: T1, Entamoeba histolytica deoxyhypusine synthase 1 (EhDHS1) with amino-terminal His-tag, co-expressed with EhDHS2 (Entamoeba histolytica, UniProt C4LXB8 1-331)
T1 construct: Deoxyhypusine synthase isotype 1 (EhDHS1) of Entamoeba histolytica, EHI_098350, XP_653614; the catalytically active isotype; also called His-tag DHS1; EHI_098350; source: E. coli BL21 (DE3), co-expressed with EhDHS2 from pETDuet-EhDHS1/2; in lysate and copurified on Ni2+-NTA; not shown: His tag, N-terminal, kept
T1 sequence (looked up): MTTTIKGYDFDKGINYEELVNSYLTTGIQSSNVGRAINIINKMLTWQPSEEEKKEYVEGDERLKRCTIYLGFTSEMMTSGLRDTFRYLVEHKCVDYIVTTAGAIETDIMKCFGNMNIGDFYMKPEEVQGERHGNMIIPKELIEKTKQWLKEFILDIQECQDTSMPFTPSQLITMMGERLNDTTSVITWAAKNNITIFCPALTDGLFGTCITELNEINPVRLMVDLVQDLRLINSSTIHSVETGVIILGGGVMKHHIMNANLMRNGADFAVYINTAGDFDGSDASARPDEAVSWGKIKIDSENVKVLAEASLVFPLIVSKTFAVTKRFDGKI
Assay: pull-down; Co-expression of His-EhDHS1 and EhDHS2-S-tag in E. coli BL21 (DE3); lysate (50 mM Tris-HCl pH 8.0, 300 mM NaCl, 10 mM imidazole, 0.1% Triton X-100) on Ni2+-NTA resin, 1 hr at 4°C; washed with 10-50 mM imidazole, eluted with 100-300 mM imidazole; immunoblot with anti-His and anti-S tag antibodies
Settings: partners not purified

B1: Entamoeba histolytica deoxyhypusine synthase 2 (EhDHS2) with carboxyl-terminal S-tag, co-expressed with EhDHS1 (natural protein, UniProt C4M2N7 1-336, looked up)
chain: MSITGEEFAKVTSKVLGESKEYKGEKCIGYDFDNGVDFNKVMEKMKYTGFQALNLGLCIEQVNEMRKNHAKIFLGMSSNIVSSGLREVIHYLVKNKFVDAIVVTAGGIEEDFIKTMHPTLLGDFYFKGKELYPNGYNRIGNLILPNSNYCEFEDWMDPLLLECLKEQNEHGVHWTPSKLVHKMGESINNESSIYYWAAKNNIPVFSPAITDGSIGDMIFFFSYKNEGLVLDLVQDVIKIDEMAFNAEKVGCLLVGAGIAKHHILNAMKRRGGCDYCAMLSTSIECDASDAGSEIAADRTKGFFKPECNPAKVIGDATILLPLIVASTFAQKEEPTK
notes: Deoxyhypusine synthase isotype 2 (EhDHS2) of Entamoeba histolytica, EHI_006030, XP_653426; stop codon removed to fuse the C-terminal S-tag of pETDuet; also called S-tag DHS2; EHI_006030; source: E. coli BL21 (DE3), co-expressed with EhDHS1 from pETDuet-EhDHS1/2; in lysate and copurified on Ni2+-NTA; not shown: S-tag, C-terminal, kept
stoichiometry N: 1 EhDHS1:EhDHS2
